{"source": "paper PMC4823666", "about": "“Characterization of a temperature-responsive two component regulatory system from the Antarctic archaeon, Methanococcoides burtonii” (Scientific Reports, 2016)", "biological_target": "the molecule itself", "experiment": "SEC; purified LtrK cytoplasmic domain; oligomeric state by size exclusion chromatography; data not shown", "data": [{"protein": "LtrK (low temperature responsive sensor kinase, Mbur_0694), soluble cytoplasmic domain, residues 323-592 (domain or fragment, Methanococcoides burtonii, UniProt Q12Y17 323-592, looked up, LtrK (Mbur_0694) sensor kinase of Methanococcoides burtonii, cytoplasmic domain (HisKA and HATPase domains), residues 323-592; the N-terminal region with the transmembrane domains was deleted; A Tev site lies between GST and LtrK; Both the GST fusion (~59 kDa) and the GST-cleaved protein (~31 kDa) were purified; also called GST-LtrK; SK; source: E. coli BL21 (DE3), solubilised with Triton X-100 …) NKTLEDEVKSKTSELERSNDYLQNANKKLKELDRLKNDFVSMVSHELKTPLTAMKTSSEFLRESECSREIKEEMLDLIIRNIDRQARMVDDLLDISRIESGKMKFTPEDVNIKEIIEISLHNVTKHAKDKSIKIMVNCPDDVPAISTDKDKLIRIFVNLLTNAIKFTPEEGEVTVIVEDHEDYLQTSIKDNGIGILEEKRDKIFDKFYQVDSTATRKAGGTGLGLAIIKGIIDGQGGKIYLESETGKGSTFTFRLPKELKEDDFTEIEGT", "values": [{"measurement": "stoichiometry N", "result": 2}]}]}
